As usually defined, the Kd is the concentration at which binding is half-saturated. Read a low Kd as a tighter complex. A word on the EC50: it is the midpoint of the concentration-response curve. By EC50 (read off the curve) is commonly meant the concentration that produces a half-maximal response. Read a low EC50 (read off the curve) as greater potency. One may read the IC50 as the concentration that gives 50% inhibition. Read a high IC50 as lower potency.

Experiment [1] addresses T1, LILRB2-ECD-HIS (SinoBiological Cat #: 14132-H02H) (human, UniProt Q8N423 22-460).
T1 construct: Bought protein; also called monomeric antigen LILRB2-ECD-HIS; not shown: His tag
Briefly: SPR (Carterra LSA), antibody captured, antigen injected.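 Further: kd obtained from kinetic analysis of antibody binding to the antigen, with association and dissociation phases fitted in the instrument software.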

The target of experiment [2] is T2, LILRB1-ECD-HIS (SinoBiological Cat #: 16014-H02H) (human, UniProt Q8NHL6 24-461).
T2 construct: Bought protein; also called monomeric antigen LILRB1-ECD-HIS; not shown: His tag
T2 sequence (Q8NHL6 other isoform, or with tags, fused parts or gaps H02H H02H): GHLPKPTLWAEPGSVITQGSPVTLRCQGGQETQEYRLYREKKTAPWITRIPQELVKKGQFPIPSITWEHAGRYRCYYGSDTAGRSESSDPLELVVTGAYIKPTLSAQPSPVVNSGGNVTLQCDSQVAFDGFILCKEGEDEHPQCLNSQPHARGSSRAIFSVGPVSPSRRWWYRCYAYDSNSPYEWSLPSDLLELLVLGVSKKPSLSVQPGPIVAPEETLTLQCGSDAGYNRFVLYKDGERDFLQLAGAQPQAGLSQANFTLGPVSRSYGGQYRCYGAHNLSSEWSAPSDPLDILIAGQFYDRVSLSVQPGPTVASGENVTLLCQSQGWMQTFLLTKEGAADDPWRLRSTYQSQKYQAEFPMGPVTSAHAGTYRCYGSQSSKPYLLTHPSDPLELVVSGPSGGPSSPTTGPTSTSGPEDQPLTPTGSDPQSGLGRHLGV
The experiment is described as above.

Experiment [3] has as its target T3, human LILRB2 expressed on cells (human, UniProt Q8N423 22-597).
T3 construct: In 293T cells it was expressed from pCMV3-LILRB2-GFP; also called CHO-LILRB2; Jurkat-LILRB2
Briefly: flow cytometry, CHO-LILRB2 cells. (In general: Flow cytometry measures light scatter and fluorescence of single cells or particles in a stream.)

For experiment [4], the target named is T4, human LILRB1 expressed on cells (human, UniProt Q8NHL6 24-650).
T4 construct: In 293T cells it was expressed from pCMV3-LILRB1-GFP; also called CHO-LILRB1; Jurkat-LILRB1
T4 sequence (Q8NHL6 other isoform, or with tags, fused parts or gaps limits assumed): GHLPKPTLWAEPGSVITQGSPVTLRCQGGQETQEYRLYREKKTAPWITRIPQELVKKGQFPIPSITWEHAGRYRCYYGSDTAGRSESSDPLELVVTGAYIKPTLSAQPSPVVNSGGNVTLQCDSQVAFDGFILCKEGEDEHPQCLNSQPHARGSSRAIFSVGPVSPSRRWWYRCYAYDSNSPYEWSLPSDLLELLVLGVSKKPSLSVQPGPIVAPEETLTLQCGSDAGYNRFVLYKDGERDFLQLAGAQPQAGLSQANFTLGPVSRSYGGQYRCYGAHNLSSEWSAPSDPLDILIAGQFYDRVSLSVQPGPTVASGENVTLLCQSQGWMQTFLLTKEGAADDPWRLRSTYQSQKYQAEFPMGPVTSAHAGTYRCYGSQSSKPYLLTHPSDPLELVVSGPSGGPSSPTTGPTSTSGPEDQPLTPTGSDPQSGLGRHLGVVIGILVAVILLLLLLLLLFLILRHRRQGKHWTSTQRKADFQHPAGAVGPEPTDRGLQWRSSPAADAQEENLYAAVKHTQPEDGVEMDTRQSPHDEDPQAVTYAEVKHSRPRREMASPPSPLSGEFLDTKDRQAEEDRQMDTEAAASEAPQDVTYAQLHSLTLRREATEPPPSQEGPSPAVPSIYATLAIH
Briefly: flow cytometry, CHO-LILRB1 cells.

Experiment [5] deals with T3, human LILRB2 expressed on cells. Put plainly: flow cytometry on CHO-LILRB2 cells, non-linear fit of the curves of FIG. 26B.
In experiment [6] the target is T4, human LILRB1 expressed on cells. Briefly: flow cytometry on CHO-LILRB1 cells, non-linear fit of the curves of FIG. 26A.
Experiment [7] concerns the target T5, LILRA1 expressed on cells (human, UniProt O75019 17-489).
T5 construct: whole, on cells; GFP-tagged; also called human LILRA1; CHO-LILRA1
Put plainly: flow cytometry on CHO-LILRA1 cells (CHO-RA1), titrated antibody, labelled anti-human Fc, gMFI.

For experiment [8], the target named is T4, human LILRB1 expressed on cells. Put plainly: flow cytometry on CHO-LILRB1 cells (CHO-RB1), titrated antibody, labelled anti-human Fc, gMFI.
The target of experiment [9] is T6, cynomolgus (monkey) LILRB2 expressed on CHO cells (cynomolgus monkey).
T6 construct: whole, on cells; Putative orthologue; also called cynoLILRB2; cynoRB2
Put plainly: flow cytometry on CHO-cynoLILRB2 cells, non-linear fit of the curves of FIG. 26D.

For experiment [10], the target named is T3, human LILRB2 expressed on cells. Briefly: flow cytometry on CHO-LILRB2 cells (CHO-RB2), titrated antibody, labelled anti-human Fc, gMFI.
For experiment [11], the target named is T5, LILRA1 expressed on cells. Put plainly: flow cytometry on CHO-LILRA1 cells, non-linear fit of the curves of FIG. 26E.
The target in experiment [12] is T7, LILRB3 expressed on cells (human, UniProt O75022 24-631).
T7 construct: whole, on cells; Expressed with a GFP tag from the bought plasmid; also called human LILRB3; CHO-LILRB3
Briefly: flow cytometry on CHO-LILRB3 cells, non-linear fit of the curves of FIG. 26C.

Experiment [13] addresses T7, LILRB3 expressed on cells. Briefly: flow cytometry on CHO-LILRB3 cells (CHO-RB3), titrated antibody, labelled anti-human Fc, gMFI.
The target of experiment [14] is T6, cynomolgus (monkey) LILRB2 expressed on …. Briefly: flow cytometry on CHO-cynoLILRB2 cells.
The target in experiment [15] is T8, LILRA6 expressed on cells (human, UniProt Q6PI73 24-481).
T8 construct: whole, on cells; GFP-tagged; also called human LILRA6; CHO-LILRA6
T8 sequence (Q6PI73 24-481): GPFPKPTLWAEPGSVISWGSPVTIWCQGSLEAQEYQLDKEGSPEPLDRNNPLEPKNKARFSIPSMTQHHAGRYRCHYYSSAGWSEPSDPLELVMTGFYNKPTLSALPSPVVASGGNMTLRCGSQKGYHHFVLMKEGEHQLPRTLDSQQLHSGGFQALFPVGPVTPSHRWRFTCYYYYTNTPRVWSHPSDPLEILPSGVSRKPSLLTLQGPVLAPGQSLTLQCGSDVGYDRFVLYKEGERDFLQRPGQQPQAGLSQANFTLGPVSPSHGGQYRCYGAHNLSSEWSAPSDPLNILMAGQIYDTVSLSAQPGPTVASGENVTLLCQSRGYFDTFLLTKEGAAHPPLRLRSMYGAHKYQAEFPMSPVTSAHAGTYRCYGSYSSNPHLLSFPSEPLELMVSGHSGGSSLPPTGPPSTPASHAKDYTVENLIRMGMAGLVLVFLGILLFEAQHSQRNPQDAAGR
Briefly: flow cytometry on CHO-LILRA6 cells, non-linear fit of the curves of FIG. 26F.

Experiment [16] addresses T6, cynomolgus (monkey) LILRB2 expressed on …. Put plainly: flow cytometry on CHO-cynoLILRB2 cells (CHO-cyno RB2), titrated antibody, labelled anti-human Fc, gMFI.
The target in experiment [17] is T8, LILRA6 expressed on cells. Put plainly: flow cytometry on 293T cells transiently expressing LILRA6, APC anti-human Fc; gMFI as fold to IgG staining.
The target of experiment [18] is T9, LILRA2 expressed on 293T cells (UniProt Q8N149 24-483, limits assumed).
T9 construct: whole, on cells; GFP-tagged, transient
T9 sequence (Q8N149 24-483 limits assumed): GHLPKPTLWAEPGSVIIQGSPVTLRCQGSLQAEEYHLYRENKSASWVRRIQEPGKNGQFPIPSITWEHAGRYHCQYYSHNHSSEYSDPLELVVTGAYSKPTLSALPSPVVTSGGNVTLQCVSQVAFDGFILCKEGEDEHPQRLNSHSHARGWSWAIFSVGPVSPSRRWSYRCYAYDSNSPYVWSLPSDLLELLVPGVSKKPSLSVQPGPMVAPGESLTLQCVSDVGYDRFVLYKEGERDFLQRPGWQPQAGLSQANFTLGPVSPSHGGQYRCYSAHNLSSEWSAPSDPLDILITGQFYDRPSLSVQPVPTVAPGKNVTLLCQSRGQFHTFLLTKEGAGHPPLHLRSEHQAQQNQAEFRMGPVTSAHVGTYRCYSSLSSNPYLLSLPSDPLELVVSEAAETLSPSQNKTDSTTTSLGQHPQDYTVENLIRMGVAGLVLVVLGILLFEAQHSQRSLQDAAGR
Briefly: flow cytometry on 293T cells transiently expressing LILRA2, APC anti-human Fc; gMFI as fold to IgG staining.

In experiment [19] the target is T5, LILRA1 expressed on cells. Briefly: flow cytometry on 293T cells transiently expressing LILRA1, APC anti-human Fc; gMFI as fold to IgG staining.
Experiment [20] concerns the target T10, LILRA4 expressed on 293T cells (UniProt P59901 24-499, limits assumed).
T10 construct: whole, on cells; GFP-tagged, transient
Put plainly: flow cytometry on 293T cells transiently expressing LILRA4, APC anti-human Fc; gMFI as fold to IgG staining.

Experiment [21] addresses T4, human LILRB1 expressed on cells. Put plainly: flow cytometry, CHO-LILRB1 cells. The source holds these as a separate data set.
The target of experiment [22] is T3, human LILRB2 expressed on cells. Put plainly: flow cytometry on 293T cells transiently expressing LILRB2, APC anti-human Fc; gMFI as fold to IgG staining.
Experiment [23] addresses T11, LILRB5 expressed on 293T cells (UniProt O75023 24-590, limits assumed).
T11 construct: whole, on cells; GFP-tagged, transient
Put plainly: flow cytometry on 293T cells transiently expressing LILRB5, APC anti-human Fc; gMFI as fold to IgG staining.

Experiment [24] concerns the target T12, LILRA3 expressed on 293T cells (UniProt Q8N6C8 24-439, limits assumed).
T12 construct: whole, on cells; GFP-tagged, transient
Briefly: flow cytometry on 293T cells transiently expressing LILRA3, APC anti-human Fc; gMFI as fold to IgG staining.

The target in experiment [25] is T4, human LILRB1 expressed on cells. Briefly: flow cytometry, CHO-LILRB1 cells. The source holds these as a separate data set.
The target of experiment [26] is T13, LILRA5 expressed on 293T cells (UniProt A6NI73 42-299, limits assumed).
T13 construct: whole, on cells; GFP-tagged, transient
T13 sequence (A6NI73 42-299 limits assumed): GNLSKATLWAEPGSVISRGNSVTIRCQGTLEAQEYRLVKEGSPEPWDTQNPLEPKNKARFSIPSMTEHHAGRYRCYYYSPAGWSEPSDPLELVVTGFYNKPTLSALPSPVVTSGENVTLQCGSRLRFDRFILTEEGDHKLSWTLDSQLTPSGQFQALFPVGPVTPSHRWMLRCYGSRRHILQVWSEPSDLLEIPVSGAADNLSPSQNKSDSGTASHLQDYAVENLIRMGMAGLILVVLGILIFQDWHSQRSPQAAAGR
Put plainly: flow cytometry on 293T cells transiently expressing LILRA5, APC anti-human Fc; gMFI as fold to IgG staining.

The target of experiment [27] is T7, LILRB3 expressed on cells. Briefly: flow cytometry on 293T cells transiently expressing LILRB3, APC anti-human Fc; gMFI as fold to IgG staining.
Experiment [28] deals with T4, human LILRB1 expressed on cells. Briefly: flow cytometry, CHO-LILRB1 cells; blocked ligand: APC HLA-G trimer tetramer.
Experiment [29] addresses T14, LILRB4 expressed on 293T cells (UniProt Q8NHJ6 22-448, limits assumed).
T14 construct: whole, on cells; GFP-tagged, transient
Briefly: flow cytometry on 293T cells transiently expressing LILRB4, APC anti-human Fc; gMFI as fold to IgG staining.

Experiment [30] concerns the target T3, human LILRB2 expressed on cells. Put plainly: flow cytometry, CHO-LILRB2 cells. This is another data set of the same source.

T5 sequence (O75019 17-489): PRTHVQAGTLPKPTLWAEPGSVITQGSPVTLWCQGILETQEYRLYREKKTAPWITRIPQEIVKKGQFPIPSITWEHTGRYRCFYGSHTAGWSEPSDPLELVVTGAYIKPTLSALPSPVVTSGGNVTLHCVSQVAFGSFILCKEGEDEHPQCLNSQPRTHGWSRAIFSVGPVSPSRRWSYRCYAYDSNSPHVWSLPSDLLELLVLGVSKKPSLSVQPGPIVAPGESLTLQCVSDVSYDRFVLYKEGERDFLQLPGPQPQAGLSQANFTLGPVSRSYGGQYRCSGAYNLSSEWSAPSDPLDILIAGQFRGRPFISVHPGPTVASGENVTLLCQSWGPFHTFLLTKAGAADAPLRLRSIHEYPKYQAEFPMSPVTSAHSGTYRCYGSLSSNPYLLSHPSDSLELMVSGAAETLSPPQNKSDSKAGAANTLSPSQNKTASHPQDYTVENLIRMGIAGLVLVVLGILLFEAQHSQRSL
T3 sequence (Q8N423 other isoform, or with tags, fused parts or gaps limits assumed): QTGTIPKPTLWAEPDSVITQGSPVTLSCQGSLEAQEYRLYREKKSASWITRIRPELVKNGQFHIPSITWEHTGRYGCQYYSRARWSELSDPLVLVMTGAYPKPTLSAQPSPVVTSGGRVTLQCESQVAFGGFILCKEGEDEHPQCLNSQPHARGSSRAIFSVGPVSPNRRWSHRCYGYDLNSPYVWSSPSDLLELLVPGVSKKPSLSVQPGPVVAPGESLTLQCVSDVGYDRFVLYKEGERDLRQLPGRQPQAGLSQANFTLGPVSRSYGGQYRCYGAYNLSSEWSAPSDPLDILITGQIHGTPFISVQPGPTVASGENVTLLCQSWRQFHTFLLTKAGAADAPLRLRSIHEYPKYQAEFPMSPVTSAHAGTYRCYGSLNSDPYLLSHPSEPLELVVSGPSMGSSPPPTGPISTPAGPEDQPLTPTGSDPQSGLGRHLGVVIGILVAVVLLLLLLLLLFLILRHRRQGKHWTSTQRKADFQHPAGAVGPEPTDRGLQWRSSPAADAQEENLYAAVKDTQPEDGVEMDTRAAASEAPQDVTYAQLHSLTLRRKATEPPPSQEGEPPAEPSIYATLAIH
T1 sequence (Q8N423 other isoform, or with tags, fused parts or gaps H02H H02H): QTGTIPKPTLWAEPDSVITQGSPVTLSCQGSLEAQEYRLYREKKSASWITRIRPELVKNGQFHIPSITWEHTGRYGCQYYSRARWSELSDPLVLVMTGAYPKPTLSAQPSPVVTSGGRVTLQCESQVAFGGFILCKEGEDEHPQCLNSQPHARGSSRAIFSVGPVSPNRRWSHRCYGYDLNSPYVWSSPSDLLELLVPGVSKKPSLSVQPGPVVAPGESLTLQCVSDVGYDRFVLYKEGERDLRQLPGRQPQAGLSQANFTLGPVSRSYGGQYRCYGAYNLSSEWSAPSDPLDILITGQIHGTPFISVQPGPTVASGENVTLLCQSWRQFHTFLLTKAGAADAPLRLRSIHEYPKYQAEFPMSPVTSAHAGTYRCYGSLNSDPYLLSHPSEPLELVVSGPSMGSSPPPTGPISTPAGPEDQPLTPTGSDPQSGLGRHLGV
T12 sequence (Q8N6C8 24-439 limits assumed): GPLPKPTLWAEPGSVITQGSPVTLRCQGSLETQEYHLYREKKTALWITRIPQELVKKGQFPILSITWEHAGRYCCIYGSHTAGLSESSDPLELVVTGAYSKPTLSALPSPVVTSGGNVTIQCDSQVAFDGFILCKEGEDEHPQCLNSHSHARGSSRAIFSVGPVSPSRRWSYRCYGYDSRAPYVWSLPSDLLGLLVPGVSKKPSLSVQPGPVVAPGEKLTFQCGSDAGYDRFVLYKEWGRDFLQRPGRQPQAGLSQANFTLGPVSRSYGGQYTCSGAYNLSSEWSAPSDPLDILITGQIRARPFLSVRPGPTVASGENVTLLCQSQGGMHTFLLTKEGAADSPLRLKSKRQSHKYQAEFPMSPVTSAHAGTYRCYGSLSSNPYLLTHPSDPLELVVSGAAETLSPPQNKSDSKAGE
T10 sequence (P59901 24-499 limits assumed): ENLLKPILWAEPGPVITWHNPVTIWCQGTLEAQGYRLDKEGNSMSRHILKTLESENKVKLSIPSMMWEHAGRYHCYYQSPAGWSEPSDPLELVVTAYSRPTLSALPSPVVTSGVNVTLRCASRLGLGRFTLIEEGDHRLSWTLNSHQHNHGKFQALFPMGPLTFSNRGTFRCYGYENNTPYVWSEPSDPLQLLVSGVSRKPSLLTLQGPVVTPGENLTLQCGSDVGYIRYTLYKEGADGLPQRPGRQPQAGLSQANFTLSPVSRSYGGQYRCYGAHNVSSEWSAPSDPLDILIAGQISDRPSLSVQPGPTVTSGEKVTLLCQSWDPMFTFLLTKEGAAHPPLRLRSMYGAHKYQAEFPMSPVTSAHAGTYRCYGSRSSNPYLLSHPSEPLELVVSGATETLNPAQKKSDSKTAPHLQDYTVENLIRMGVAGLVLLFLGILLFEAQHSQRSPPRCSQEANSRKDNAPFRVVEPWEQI

B1: D2M002-004 (antibody, human IgG1, V domains shown)
VH: EVQLQQSGAELVRPGALVKLSCKASGFNIKDYYMHWVKQRPEQGLEWIGWIDPESGNTIYDPKFQGKASMTADTSSNTAYLQLSSLTSEDTAVYYCARLDGSSYYAMDYWGQGTSVTVSS
VL: DILLTQSPASLAVSLGQRATISCRASESVDSYGNSFMHWYQQKPGQPPKLLIYLASNLESGVPARFSGSGSRTDFTLTIDPVEADDAATYYCQQNNEDPLTFGAGTKLELK
notes: Hit; also called clone #4
B1 returned a Kd in [1] of 1000 nM. This molecule also had a Kd in [2] of 23.6 nM. Also, the binding result in experiment [3] is given as “no binding (tested: 5 µg/mL)”. In addition, in experiment [4], a half-maximal effect (EC50) was put at 0.004 µg/mL and the “gMFI (max)” value stood at 14300.

B2: D2M002-103HV1 (antibody, V domains shown)
VH: QVQLVQSGAEVKKPGASVKVSCKASGYTFTRYVMHWVRQAPGQRLEWIGYINPNNEETKYSQKFKGRVTLTRDTSASTAYMELSSLRSEDTAVYYCARADLEILPYYDHARYAMDYWGQGTLVTVSS
VL: DIQMTQSPSSVSASVGDRVTITCRASENIYSHLAWYQQKPGKAPKLLVYNAKSLQSGVPSRFSGSGSGTDFTLTISSLQPEDFATYYCQHFWSTPPTFGGGTKVEIK
notes: Humanized and optimized variant of the D2M002-002 lineage
For the molecule B2, the concentration giving a half-maximal response (EC50) in experiment [5] was 0.0599 µg/mL; in [6] it was 0.0941 µg/mL; in experiment [9], 0.059 µg/mL; in [11] it was 0.157 µg/mL; in experiment [12], 0.12 µg/mL; in [14], 0.059 µg/mL. Besides, the EC50 in experiment [15] is 0.0473 µg/mL. Besides, the values for the MaxMFI in [5], in experiment [6] and in experiment [11] were 30000, 111000 and 20300, respectively. Moreover, the concentration for a half-maximal effect (EC50 (read off the curve)) was about 0.2 µg/mL in [7]; about 0.1 µg/mL in [8]; about 0.06 µg/mL in [10]; about 0.1 µg/mL in [13]; about 0.06 µg/mL in experiment [16].

B3: Anti-LILRB1 antibody 3C1 (antibody, human IgG4 S228P, lambda, V domains shown)
VH: EVQLVESGGGLVQPGGSLRLSCAASGFTFSDYDMHWVRQATGKGLEWVATIDTAGDTYYPDSVRGRFTISRENAKNSLSLQMNSLRAGDTAVYFCARDVPGTGFDHWGQGTLVTVSS
VL: SSELTQDPAVSVALGQTVRITCQGDSLRSYYESWYQQKPGQAPVLVIYGKNNRPSGIPDRFSGSISGNTASLTITGTQAEDEADYYCNSRDNSGDHWVFGGGTRLTVLG
Turning to B3, the binding result in experiment [17], in [18], in experiment [19], in [20], in experiment [22] and in experiment [23] was “no binding (tested: 5 µg/mL)” each time. Further, the binding result in experiment [24], in experiment [26], in [27] and in [29] was “no binding (tested: 5 µg/mL)” each time. Further, the concentration giving a half-maximal response (EC50 (read off the curve)) in [21] was about 0.02 µg/mL. The values for the EC50 in experiment [25] and in [4] were 0.033 µg/mL and 0.016 µg/mL, respectively. In experiment [28], this molecule registered an IC50 of 0.012 µg/mL. Moreover, the “gMFI (max)” value in experiment [4] was determined as 23000.

B4: #45 (antibody, human IgG1, V domains shown)
VH: QIQLLQSGPELKKPGETVKISCKASGYTFTDYSMHWVKQAPGKGLKWMGWINTETGEPTYADDFKGRFAFSLETSASTAYLQINNLKNEDTATYFCARVVRRGYFDVWGAGTTVTVSS
VL: DIQMTQSPASLSASVGETVTITCRASGNIHNYLAWYQQKQGKSPQVLVYNAKTLADGVPSRFSGSGSGTQYSLKINSLQPEDFGSYYCQHFWSTPFTFGSGTKLEIK
notes: also called D2M002-045
Turning to B4, the Kd in experiment [1] is 1000 nM; in experiment [2], 94.4 nM. Also, the binding result in [30] was “no binding (tested: 5 µg/mL)”.

For the origin of these results see US20250171534A1 (D2M BIOTHERAPEUTICS, published 2025).
